We go through one molecule from PMC12664034, “The E3 ubiquitin ligase SPRYD3-MYCBP2(PAM) regulates mitotic cell fate and ubiquitination of USP11 to control spindle assembly” (The Journal of Biological Chemistry, 2025).

The target of the test is T1, GST-USP11 (UniProt P51784 1-963).
T1 construct: USP11; pGEX4T1-GST-USP11; made by subcloning; the bought USP11 plasmid is Addgene 22566; also called recombinant USP11; source: E. coli Rosetta (DE3), purified (Glutathione Sepharose 4B)
As to the kind of experiment: pull-down; MBP pull-down: 10 μg MBP-SPRYD3 (or equimolar MBP) mixed with 10 μg GST-tagged protein in NP-40 buffer, 4 °C 1 h; Amylose resin 2 h at 4 °C; five washes; Western blot. Particulars: both partners purified. On the technique in general: In western blotting, separated proteins are transferred to a membrane and probed.

T1 sequence (P51784 whole entry): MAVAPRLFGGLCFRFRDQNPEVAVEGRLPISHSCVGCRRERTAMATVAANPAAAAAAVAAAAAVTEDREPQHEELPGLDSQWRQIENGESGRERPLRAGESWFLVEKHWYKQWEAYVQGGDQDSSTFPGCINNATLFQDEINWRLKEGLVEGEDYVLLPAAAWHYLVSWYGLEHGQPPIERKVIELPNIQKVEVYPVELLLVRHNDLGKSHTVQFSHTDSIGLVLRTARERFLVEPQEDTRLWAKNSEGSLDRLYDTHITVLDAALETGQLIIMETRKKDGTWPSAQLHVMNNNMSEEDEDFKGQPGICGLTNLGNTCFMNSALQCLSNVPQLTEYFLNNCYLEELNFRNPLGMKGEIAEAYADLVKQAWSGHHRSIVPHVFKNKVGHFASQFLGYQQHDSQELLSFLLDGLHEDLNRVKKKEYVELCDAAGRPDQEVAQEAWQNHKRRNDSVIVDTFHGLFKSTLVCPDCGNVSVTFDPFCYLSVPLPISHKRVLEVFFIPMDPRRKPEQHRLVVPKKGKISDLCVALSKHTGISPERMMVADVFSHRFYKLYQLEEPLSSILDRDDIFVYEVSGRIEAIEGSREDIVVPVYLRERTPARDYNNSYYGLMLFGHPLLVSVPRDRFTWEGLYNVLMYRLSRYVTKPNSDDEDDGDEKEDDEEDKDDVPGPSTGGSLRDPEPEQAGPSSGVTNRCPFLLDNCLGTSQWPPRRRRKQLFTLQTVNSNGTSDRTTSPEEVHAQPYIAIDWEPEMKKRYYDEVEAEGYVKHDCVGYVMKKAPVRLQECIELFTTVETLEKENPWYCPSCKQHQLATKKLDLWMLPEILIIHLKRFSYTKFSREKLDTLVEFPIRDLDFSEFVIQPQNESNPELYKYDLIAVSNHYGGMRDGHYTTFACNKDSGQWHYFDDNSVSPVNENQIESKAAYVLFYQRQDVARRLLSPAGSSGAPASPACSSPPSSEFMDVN

B1: MBP-SPRYD3 (natural protein, UniProt Q8NCJ5 1-442, looked up)
chain: MRRTRRPRFVLMNKMDDLNLHYRFLNWRRRIREIREVRAFRYQERFKHILVDGDTLSYHGNSGEVGCYVASRPLTKDSNYFEVSIVDSGVRGTIAVGLVPQYYSLDHQPGWLPDSVAYHADDGKLYNGRAKGRQFGSKCNSGDRIGCGIEPVSFDVQTAQIFFTKNGKRVGSTIMPMSPDGLFPAVGMHSLGEEVRLHLNAELGREDDSVMMVDSYEDEWGRLHDVRVCGTLLEYLGKGKSIVDVGLAQARHPLSTRSHYFEVEIVDPGEKCYIALGLARKDYPKNRHPGWSRGSVAYHADDGKIFHGSGVGDPFGPRCYKGDIMGCGIMFPRDYILDSEGDSDDSCDTVILSPTARAVRNVRNVMYLHQEGEEEEEEEEEEEDGEEIEPEHEGRKVVVFFTRNGKIIGKKDAVVPSGGFFPTIGMLSCGEKVKVDLHPLSG
notes: SPRYD3; pMal-c2-MBP-SPRYD3; also called recombinant SPRYD3; source: E. coli Rosetta (DE3), purified (Amylose resin)
Consider B1, for which the binding result is reported as “binds”.
